Data reported in patent US20250042957A1 (Molecular Partners, published 2025).
Read-outs that look alike come from different tables or passages of the source.

Key:
[1] = target: T1, Aminoglycoside phosphotransferase (APH) (Enterococcus faecalis (Streptococcus …, UniProt P0A3Y5 2-264))
T1 chain: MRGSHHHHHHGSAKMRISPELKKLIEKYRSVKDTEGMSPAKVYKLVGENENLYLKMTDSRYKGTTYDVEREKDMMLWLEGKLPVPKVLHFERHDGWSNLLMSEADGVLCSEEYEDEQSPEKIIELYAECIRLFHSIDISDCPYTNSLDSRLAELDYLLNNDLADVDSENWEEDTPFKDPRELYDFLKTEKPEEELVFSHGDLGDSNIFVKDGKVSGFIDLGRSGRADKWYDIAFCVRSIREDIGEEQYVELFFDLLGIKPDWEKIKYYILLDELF

[2] = target: Maltose binding protein (MBP) (E. coli); experiment: ELISA on MBP, DARPin titrated
[3] = target: T1, Aminoglycoside phosphotransferase (APH); experiment: ELISA on APH, DARPin titrated
scCD3εγ [4] = target: T2, scCD3εγ; experiment: ELISA on scCD3εγ, DARPin titrated
T2 chain 1: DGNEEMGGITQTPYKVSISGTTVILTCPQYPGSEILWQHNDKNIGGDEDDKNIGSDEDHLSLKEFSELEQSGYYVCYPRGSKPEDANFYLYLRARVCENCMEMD
T2 chain 2: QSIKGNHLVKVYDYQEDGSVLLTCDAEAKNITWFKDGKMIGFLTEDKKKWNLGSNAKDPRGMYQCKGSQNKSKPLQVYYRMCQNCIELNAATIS

scCD3εγ [5] = target: T2, scCD3εγ; experiment: SPR, bio-scCD3εγ coated on NAD chip, DARPin 333.33-4.11 nM
scCD3εγ [6] = target: T2, scCD3εγ; experiment: ELISA: plate-bound biotinylated scCD3εγ, His-tagged construct titrated without and with 100 nM soluble VEGF
Description: (§1) The difference in binding of Switchdrug DARPins to scCD3εγ in presence and absence of VEGF was assessed. […] Said Switchdrug DARPins were mixed with a constant concentration of VEGF (100 nM) and tested for binding to scCD3εγ. […] The difference in EC50 of a construct in presence and absence of VEGF can be referred to as the “activation window”.
(§2) Switchdrug DARPins that were mixed with VEGF were titrated and pre-incubated for 1 day with VEGF in order to establish the thermodynamic equilibrium. These samples were loaded on the ELISA plate, incubated and washed, before the bound Switchdrug DARPins were detected as described above.

VEGF165 = target: T3, VEGF165 (UniProt P15692-4 27-191, biotinylated in the ELISA of Example 4 (site not stated)); experiment: ELISA: plate-bound biotinylated VEGF165, His-tagged construct titrated, no soluble VEGF, anti-His-HRP detection
T3 construct: also called biotinylated VEGF165; soluble VEGF

scCD3εγ [7] = target: T2, scCD3εγ; experiment: ELISA: plate-bound biotinylated scCD3εγ, His-tagged construct titrated, no VEGF
Description: as §1, §2

scCD3εγ [8] = target: T2, scCD3εγ; experiment: ELISA: plate-bound biotinylated scCD3εγ, His-tagged construct titrated in presence of 100 nM soluble VEGF
Description: as §1, §2

scCD3εγ [9] = target: T2, scCD3εγ; experiment: ELISA: plate-bound biotinylated scCD3εγ, His-tagged construct titrated without and with 100 nM soluble VEGF
Description: as §1, §2

scCD3εγ [10] = target: T2, scCD3εγ; experiment: ELISA: plate-bound biotinylated scCD3εγ, His-tagged construct titrated in presence of 100 nM soluble VEGF
Description: as §1, §2

scCD3εγ [11] = target: T2, scCD3εγ; experiment: ELISA: plate-bound biotinylated scCD3εγ, His-tagged construct titrated without and with 100 nM soluble VEGF
Description: as §1, §2

T3 sequence (P15692 other isoform, or with tags, fused parts or gaps limits assumed): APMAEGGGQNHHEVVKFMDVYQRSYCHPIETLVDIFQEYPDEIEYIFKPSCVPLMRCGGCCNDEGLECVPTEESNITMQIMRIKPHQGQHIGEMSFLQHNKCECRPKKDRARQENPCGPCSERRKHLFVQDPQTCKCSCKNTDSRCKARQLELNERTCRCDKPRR

B1: 2-in-1 DARPin 21 (SEQ ID NO: 90) (designed binder)
chain: DLGKKLLEAARAGQDDEVRILMANGADVNANDWFGITPLHLVVNNGHLEIIEVLLKYAADVNASDKSGWTPLHLAAYRGHLEIVEVLLKYGADVNAMDYQGYTPLHLAAEDGHLEIVEVLLKYGADVNAKDKFGKTPLHIAARAGHLEIVEVLLKAGADVNAADNTGTTPLHLAAYSGHLEIVEVLLKHGADVDASDVFGYTPLHLAAYWGHLEIVEVLLKNGADVNAMDSDGMTPLHLAAKWGYLEIVEVLLKHGADVNAQDKFGKTAFDISIDNGNEDLAEILQKAA
[1]
  Kd: 66.9 nM
[2]
  EC50 (read off the curve): ~100 nM
[3]
  EC50 (read off the curve): ~20 nM

B2: 2-in-1 DARPin 22 (SEQ ID NO: 91) (designed binder)
chain: DLGKKLLEAARAGQDDEVRILMANGADVNANDWFGITPLHLVVNNGHLEIIEVLLKYAADVNASDKSGWTPLHLAAYRGHLEIVEVLLKYGADVNAMDYQGYTPLHLAAEDGHLEIVEVLLKYGADVNAKDKFGRTPLHIAARNGHLEIVEVLLKAGADVNAADNTGTTPLHLAAYSGHLEIVEVLLKHGADVDASDVFGYTPLHLAAYWGHLEIVEVLLKNGADVNAMDSDGMTPLHLAAKWGYLEIVEVLLKHGADVNAQDKFGKTAFDISIDNGNEDLAEILQKAA
[1]
  Kd: 52.6 nM
[3]
  EC50 (read off the curve): ~10 nM

B3: 2-in-1 DARPin 25 (SEQ ID NO: 94) (designed binder)
chain: DLGKKLLQAARAGQLDEVRELLKAGADVNAKDSQGRTPLHLAAFAGHLEIVEVLLKAGADVNAKDHAGWTPLHLAAYAGHLEIVEVLVKAGADVNAKDTEGKTPLHIAAWFGHLEIVEVLLKAGADVNAKDKSGKTPLHLAARAGHLEIVEVLLKAGADVNAKDNSGQTPLHLAAWAGHLEIVEVLLKAGADVNAKNSRGWTPLHTAAQTGHLEIFEVLLKAGADVNAKNDKRVTPLHLAAALGHLEIVEVLLKAGADVNARDSWGTTPADLAAKYGHQDIAEVLQKAA
notes: Family 2, from Parent nos 3 and 4; tag not specified
scCD3εγ [4]
  EC50 (read off the curve): ~10 nM
scCD3εγ [5]
  Kd: 4.05 nM

B4: Switchdrug DARPin 17-A (designed binder)
chain: MRGSHHHHHHGSDLGKKLLQAARAGQLDEVRELLKAGADVNAKDQYGRTPLHLAAIKGHLEIVEVLLKAGADVNAKDSLGYTPLHLAAVEGPLEIVEVLLKAGADVNAKDAYGQTPLHIAAAWGHLEIVEVLLKAVADVNAQDKSGKTPADLAARAGHQDIAEVLQKAAGSPTPTPTTPTPTPTTPTPTPTGSDLGQKLLEAAWAGQDDEVRELLKAGADVNAKNSRGWTPLHTAAQTGHLEIFEVLLKAGADVNAKNDKRVTPLHLAAALGHLEIVEVLLKAGADVNARDSWGTTPADLAAKYGHQDIAEVLQKAAGSPTPTPTTPTPTPTTPTPTPTGSDLGKKLLQAARAGQLDEVRELLKAGADVNAKDSTGWTPLHLAAPWGHPEIVEVLLKAGADVNAKDFQGWTPLHLAAAAGHLEIVEVLLKAGADVNAKDWLGWTPLHLAASHGHLEIVEVLLKAGADVNAQDKSGKTPADLAARAGHQDIAEVLQKAA
notes: also called 2-in-1 DARPin17 in Format A
scCD3εγ [6]
  shift in EC50 upon addition of 100 nM VEGF: ~90 fold
VEGF165
  EC50 (read off the curve): ~40 nM

B5: Switchdrug DARPin 15-1 (designed binder)
chain: MRGSHHHHHHGSDLGQKLLEAAWAGQDDEVRELLKAGADVNAKNSRGWTPLHTAAQTGHLEIFEVLLKAGADVNAKNDKRVTPLHLAAALGHLEIVEVLLKAGADVNARDSWGTTPADLAAKYGHQDIAEVLQKAAGSPTPTPTTPTPTPTTPTPTPTGSDLDKKLLEAARAGQDDEVRILLKAGADVNAKDSTGWTPLHLAAPWGHPEIVEVLLKAGADVNAKDFQGWTPLHLAAAAGHLEIVEVLLKAGADVNAKDWLGWTPLHLAASHGHLEIVEVLLKAGADVNAQDKSGKTPADLAARAGHQDIAEVLQKAA
notes: also called 2-in-1 DARPin15 in Format 1
scCD3εγ [7]
  EC50 (read off the curve): ~50 nM
scCD3εγ [8]
  EC50 (read off the curve): ~3 nM
scCD3εγ [9]
  shift in EC50 upon addition of 100 nM VEGF: ~18 fold

B6: Switchdrug DARPin 18-1 (designed binder)
chain: MRGSHHHHHHGSDLGQKLLEAAWAGQDDEVRELLKAGADVNAKNSRGWTPLHTAAQTGHLEIFEVLLKAGADVNAKNDKRVTPLHLAAALGHLEIVEVLLKAGADVNARDSWGTTPADLAAKYGHQDIAEVLQKAAGSPTPTPTTPTPTPTTPTPTPTGSDLDKKLLEAARAGQDDEVRILLKAGADVNAKDSTGWTPLHLAAPWGHPEIVEVLLKAGADVNAKDFQGWTPLHLAAAAGHLEIVEVLLKAGADVNAKDVYGWTPLHIAAASGHLEIVEVLLKAGADVNAKDWLGWTPLHLAASHGHLEIVEVLLKAGADVNAQDKSGKTPADLAARAGHQDIAEVLQKAA
notes: also called 2-in-1 DARPin18 in Format 1
scCD3εγ [7]
  EC50 (read off the curve): ~100 nM
scCD3εγ [8]
  EC50 (read off the curve): ~40 nM
scCD3εγ [9]
  shift in EC50 upon addition of 100 nM VEGF: ~3 fold

B7: Switchdrug DARPin 15-3 (designed binder)
chain: MRGSHHHHHHGSDLDKKLLEAARAGQDDEVRILLKAGADVNAKDSTGWTPLHLAAPWGHPEIVEVLLKAGADVNAKDFQGWTPLHLAAAAGHLEIVEVLLKAGADVNAKDWLGWTPLHLAASHGHLEIVEVLLKAGADVNAQDKSGKTPADLAARAGHQDIAEVLQKAAGSPTPTPTTPTPTPTTPTPTPTGSDLGKKLLEAARAGQDDEVRELLKAGADVNAKDKDGYTPLHLAAREGHLEIVEVLLKAGADVNAKDKDGYTPLHLAAREGHLEIVEVLLKAGADVNAQDKSGKTPADLAADAGHEDIAEVLQKAAGSPTPTPTTPTPTPTTPTPTPTGSDLGQKLLEAAWAGQDDEVRELLKAGADVNAKNSRGWTPLHTAAQTGHLEIFEVLLKAGADVNAKNDKRVTPLHLAAALGHLEIVEVLLKAGADVNARDSWGTTPADLAAKYGHQDIAEVLQKAA
notes: also called 2-in-1 DARPin15 in Format 3
scCD3εγ [10]
  EC50 (read off the curve): ~8 nM
scCD3εγ [11]
  shift in EC50 upon addition of 100 nM VEGF: ~54 fold

B8: Switchdrug DARPin 17-3 (designed binder)
chain: MRGSHHHHHHGSDLGKKLLQAARAGQLDEVRELLKAGADVNAKDSTGWTPLHLAAPWGHPEIVEVLLKAGADVNAKDFQGWTPLHLAAAAGHLEIVEVLLKAGADVNAKDWLGWTPLHLAASHGHLEIVEVLLKAGADVNAQDKSGKTPADLAARAGHQDIAEVLQKAAGSPTPTPTTPTPTPTTPTPTPTGSDLGKKLLEAARAGQDDEVRELLKAGADVNAKDKDGYTPLHLAAREGHLEIVEVLLKAGADVNAKDKDGYTPLHLAAREGHLEIVEVLLKAGADVNAQDKSGKTPADLAADAGHEDIAEVLQKAAGSPTPTPTTPTPTPTTPTPTPTGSDLGQKLLEAAWAGQDDEVRELLKAGADVNAKNSRGWTPLHTAAQTGHLEIFEVLLKAGADVNAKNDKRVTPLHLAAALGHLEIVEVLLKAGADVNARDSWGTTPADLAAKYGHQDIAEVLQKAA
notes: also called 2-in-1 DARPin17 in Format 3
scCD3εγ [10]
  EC50 (read off the curve): ~3 nM
scCD3εγ [11]
  shift in EC50 upon addition of 100 nM VEGF: ~100 fold

B9: Switchdrug DARPin 18-3 (designed binder)
chain: MRGSHHHHHHGSDLDKKLLEAARAGQDDEVRILLKAGADVNAKDSTGWTPLHLAAPWGHPEIVEVLLKAGADVNAKDFQGWTPLHLAAAAGHLEIVEVLLKAGADVNAKDVYGWTPLHIAAASGHLEIVEVLLKAGADVNAKDWLGWTPLHLAASHGHLEIVEVLLKAGADVNAQDKSGKTPADLAARAGHQDIAEVLQKAAGSPTPTPTTPTPTPTTPTPTPTGSDLGKKLLEAARAGQDDEVRELLKAGADVNAKDKDGYTPLHLAAREGHLEIVEVLLKAGADVNAKDKDGYTPLHLAAREGHLEIVEVLLKAGADVNAQDKSGKTPADLAADAGHEDIAEVLQKAAGSPTPTPTTPTPTPTTPTPTPTGSDLGQKLLEAAWAGQDDEVRELLKAGADVNAKNSRGWTPLHTAAQTGHLEIFEVLLKAGADVNAKNDKRVTPLHLAAALGHLEIVEVLLKAGADVNARDSWGTTPADLAAKYGHQDIAEVLQKAA
notes: also called 2-in-1 DARPin18 in Format 3
scCD3εγ [10]
  EC50 (read off the curve): ~90 nM

B10: Parent DARPin no 2 (SEQ ID NO: 87) (designed binder)
chain: DLGKKLLEAARAGQDDEVRILMANGADVNANDWFGITPLHLVVNNGHLEIIEVLLKYAADVNASDKSGWTPLHLAAYRGHLEIVEVLLKYGADVNAMDYQGYTPLHLAAEDGHLEIVEVLLKYGADVNAQDKFGKTAFDISIDNGNEDLAEILQKLN
[1]
  Kd: 147 nM
